The test has as its target T1, PGIS–CFP (human, UniProt Q16647 1-500).
T1 sequence (looked up): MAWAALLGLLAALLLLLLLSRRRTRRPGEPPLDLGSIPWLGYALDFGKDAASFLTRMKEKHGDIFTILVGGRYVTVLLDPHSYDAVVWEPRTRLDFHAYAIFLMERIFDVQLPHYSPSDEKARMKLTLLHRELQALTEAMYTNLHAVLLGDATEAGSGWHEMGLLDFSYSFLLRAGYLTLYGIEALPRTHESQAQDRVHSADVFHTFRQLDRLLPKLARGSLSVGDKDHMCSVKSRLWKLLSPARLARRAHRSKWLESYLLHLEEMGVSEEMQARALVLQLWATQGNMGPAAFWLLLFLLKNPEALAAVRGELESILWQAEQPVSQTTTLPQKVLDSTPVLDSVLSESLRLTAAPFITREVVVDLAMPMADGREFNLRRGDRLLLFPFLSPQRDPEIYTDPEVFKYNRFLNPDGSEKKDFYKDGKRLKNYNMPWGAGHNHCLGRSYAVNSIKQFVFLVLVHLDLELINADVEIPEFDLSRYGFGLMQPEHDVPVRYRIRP
Kind of test: FRET or BRET. In general terms: Bioluminescence resonance energy transfer reports proximity on the nanometre scale.

B1: COX-2-RFP (enzyme, human, UniProt P35354 18-604, looked up)
chain: ANPCCSHPCQNRGVCMSVGFDQYKCDCTRTGFYGENCSTPEFLTRIKLFLKPTPNTVHYILTHFKGFWNVVNNIPFLRNAIMSYVLTSRSHLIDSPPTYNADYGYKSWEAFSNLSYYTRALPPVPDDCPTPLGVKGKKQLPDSNEIVEKLLLRRKFIPDPQGSNMMFAFFAQHFTHQFFKTDHKRGPAFTNGLGHGVDLNHIYGETLARQRKLRLFKDGKMKYQIIDGEMYPPTVKDTQAEMIYPPQVPEHLRFAVGQEVFGLVPGLMMYATIWLREHNRVCDVLKQEHPEWGDEQLFQTSRLILIGETIKIVIEDYVQHLSGYHFKLKFDPELLFNKQFQYQNRIAAEFNTLYHWHPLLPDTFQIHDQKYNYQQFIYNNSILLEHGITQFVESFTRQIAGRVAGGRNVPPAVQKVSQASIDQSRQMKYQSFNEYRKRFMLKPYESFEELTGEKEMSAELEALYGDIDAVELYPALLVEKPRPDAIFGETMVEVGAPFSLKGLMGNVICSPAYWKPSTFGGEVGFQIINTASIQSLICNNVKGCPFTSFSVPDPELIKTVTINASSSRSGLDDINPTVLLKERSTEL
Take B1: the “FRET intensity relative to COX-1-RFP with PGIS–CFP” value was determined as 2 fold.

The values above are taken from publication PMC3046773 (Life sciences, 2010).
